Experimental data reported in PMC7144274.

Biological target: soluble MERTK ectodomain (MERTK^ED-His)
Test: SPR; Biacore T200, room temperature; […]; HBS-EP (10 mM HEPES pH 7.4, 150 mM NaCl, 0.05% Tween 20)

## CSFV E2 ectodomain (E2^ED-His) (domain or fragment)
  Kd: 1630 nM
